Legend:
[1] = target: T1, human PD-1/His (Sino Biological Inc.) (human, UniProt Q15116 25-170); test: indirect ELISA, human PD-1/His coated at 0.1 µg/mL, HRP goat anti-mouse IgG
T1 construct: extracellular domain; Bought protein; also called extracellular domain fragment of PD-1 protein containing His tag; not shown: His tag
Experimental: (§1) Human PD-1/His, human ICOS/Fc, human CTLA4/His, human CD28/Fc, cynomolgus monkey PD-1/Fc, and mouse PD-1/His (all from Sino Biological Inc., Beijing, China) were diluted with PBS buffer to 0.1 μg/mL, and added to the 96-well plate at a volume of 100 μL/well and placed at 16° C. for 16 to 20 h. The PBS buffer was aspirated from the 96-well plate, and the plate was washed once with PBST (PBS containing 0.05% Tween 20, pH 7.4). 200 μL of PBST/1% no-fat milk was added to each well and incubated at room temperature for 1 h for blocking. The blocking solution was removed and the plate was washed 3 times with PBST. 100 μL of the anti-PD-1 antibody to be tested was added to each well, and incubated at room temperature for 1.5 h. The reaction solution was removed and the plate was washed 3 times with PBST. 50 μL of the HRP-labeled goat anti-mouse IgG secondary antibody (The Jackson Laboratory) diluted (dilution ratio 1:4000) was added to each well. Incubated at room temperature for 1 h. The plate was washed 3 times with PBST. 100 μL of the TMB was added to each well and incubated at room temperature for 5-10 min 50 μL of 0.2 M sulfuric acid was added to each well to terminate the reaction. Absorbance values were read at dual wavelengths of 450/620 nm in a microplate reader.

[2] = target: T2, human CTLA4/His (Sino Biological Inc.) (human, UniProt P16410 36-162, limits assumed); test: indirect ELISA, human CTLA4/His coated at 0.1 µg/mL, HRP goat anti-mouse IgG
T2 construct: Bought protein; not shown: His tag
T2 sequence (P16410 36-162 limits assumed): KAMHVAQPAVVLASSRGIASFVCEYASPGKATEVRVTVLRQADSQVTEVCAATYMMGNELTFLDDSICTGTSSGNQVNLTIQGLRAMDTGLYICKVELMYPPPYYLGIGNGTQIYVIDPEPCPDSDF
Experimental: as §1

[3] = target: T3, cynomolgus monkey PD-1/Fc (Sino Biological Inc.) (cynomolgus monkey, UniProt B0LAJ3 25-170); test: indirect ELISA, cynomolgus monkey PD-1/Fc coated at 0.1 µg/mL, HRP goat anti-mouse IgG
T3 construct: Bought protein
T3 sequence (B0LAJ3 entry or part of it limits assumed): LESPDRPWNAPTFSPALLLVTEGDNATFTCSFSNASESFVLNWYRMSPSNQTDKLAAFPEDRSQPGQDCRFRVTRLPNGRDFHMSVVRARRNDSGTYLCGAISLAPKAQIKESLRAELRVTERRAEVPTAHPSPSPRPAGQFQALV
Experimental: as §1

[4] = target: T4, human CD28/Fc (Sino Biological Inc.) (human, UniProt P10747 19-152); test: indirect ELISA, human CD28/Fc coated at 0.1 µg/mL, HRP goat anti-mouse IgG
T4 construct: Bought protein; not shown: Fc
Experimental: as §1

[5] = target: T1, human PD-1/His (Sino Biological Inc.); test: BLI (Octet), human PD-1/His on Ni-NTA sensor, antibody 3.125-100 nM
Description: We used the bio-layer interferometry (BLI) technique to characterize the binding kinetics and affinity of purified murine monoclonal antibodies. According to the standard procedure, the Octet molecular interaction instrument (ForteBio Octet RED & QK system, PALL corp.) was operated. […] The antigen-antibody association and dissociation kinetics were then tracked.

[6] = target: T5, mouse PD-1/His (Sino Biological Inc.) (mouse, UniProt Q02242 25-167); test: indirect ELISA, mouse PD-1/His coated at 0.1 µg/mL, HRP goat anti-mouse IgG
T5 construct: Bought protein; not shown: His tag
T5 sequence (looked up): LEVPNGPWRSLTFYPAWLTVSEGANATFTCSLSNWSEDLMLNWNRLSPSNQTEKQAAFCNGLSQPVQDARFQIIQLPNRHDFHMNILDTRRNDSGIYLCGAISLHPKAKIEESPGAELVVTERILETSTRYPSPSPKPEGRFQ
Experimental: as §1

[7] = target: T6, Human PD-1 (Sino Biological Inc., Beijing, China) (human, UniProt Q15116 25-167); test: indirect ELISA, human PD-1 coated at 0.1 µg/mL
T6 construct: also called hPD-1
T6 sequence (Q15116 25-167 limits assumed): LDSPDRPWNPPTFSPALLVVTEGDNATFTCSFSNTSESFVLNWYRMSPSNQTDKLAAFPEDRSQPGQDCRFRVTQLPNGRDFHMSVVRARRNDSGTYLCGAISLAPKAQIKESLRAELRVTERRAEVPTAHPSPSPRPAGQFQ
Experimental: The PBS buffer was aspirated from the 96-well plate, and the plate was washed once with PBST (PBS containing 0.05% Tween 20, pH 7.4). 200 μL of PBST/1% no-fat milk was added to each well and incubated at room temperature for 1 h for blocking. The blocking solution was removed and the plate was washed 3 times with PBST. […] The reaction solution was removed and the plate was washed 3 times with PBST. […] The plate was washed 3 times with PBST.

[8] = target: T7, human ICOS/Fc (Sino Biological Inc.) (human, UniProt Q9Y6W8 21-141, limits assumed); test: indirect ELISA, human ICOS/Fc coated at 0.1 µg/mL, HRP goat anti-mouse IgG
T7 construct: Bought protein; not shown: Fc
T7 sequence (looked up): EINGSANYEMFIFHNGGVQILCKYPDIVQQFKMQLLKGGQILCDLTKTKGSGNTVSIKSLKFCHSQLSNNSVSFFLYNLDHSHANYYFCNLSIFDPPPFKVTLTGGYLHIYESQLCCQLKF
Experimental: as §1

T1 sequence (Q15116 25-170): as the sequence (B0LAJ3 entry or part of it limits assumed) above, with E2D, A10P, L19V, A35T, R75Q, A144T counted along it

B1: murine monoclonal antibody AB12M1 (antibody, mouse IgG2b, V domains shown)
VH: EVKLVESGGGLVKPGGSLKLSCAASGFTFSSYGMSWVRQTPEKRLEWVATISGGGRDTYYPDSVKGRFTISRDNAKNNLYLQMSSLRSEDTALYYCARQKDTSWFVHWGQGTLVTVSA
VL: not shown
notes: subclass identified as mouse IgG2b (Kappa), purified from hybridoma supernatant; also called antibody of hybridoma clone #32
For B1, the “EC50 (read off the curve)” value [1] was roughly 4 ng/mL, the binding result [2] was “no binding (tested: 10 µg/mL)” and the “EC50 (read off the curve)” value [3] was roughly 3 ng/mL. The binding result [4] was “no binding (tested: 10 µg/mL)”, the Kd [5] was less than 1 pM and the koff [5] was less than 1e-07 s⁻¹. For the same binder, the kon [5] was 109000 M⁻¹ s⁻¹, the binding result [6] was “no binding (tested: 10 µg/mL)” and the EC50 [7] was roughly 2 ng/mL. B1: no binding (tested: 10 µg/mL) [8].

Reference: US20190367617A1 (AMPSOURCE BIOPHARMA SHANGHAI, published 2019)
